These results are taken from PMC9120461, “Structural insights into the mechanism of pancreatic KATP channel regulation by nucleotides” (Nature Communications, 2022).

Data set [1] addresses T1, SUR1 from Mesocricetus auratus (maSUR1), as the SUR1 part of H175K_(cryo-EM) (Mesocricetus auratus, UniProt A0A1U7R319 1-1582).
T1 construct: SUR1 from Mesocricetus auratus (maSUR1); In the assay it stood on one chain with Kir6.2 H175K: its C terminus is joined to the 41-residue linker and the Prescission site; also called SUR1 subunit; source: purified in digitonin (Streptactin 4FF resin, Superose 6 increase)
The data set can be described thus: cryo-EM structure; purified H175K_(cryo-EM) fusion protein (13.5 uM octamer) in TBS (20 mM Tris-HCl pH 7.5, 150 mM NaCl) with 0.1% digitonin, with 5 mM MgCl2, 0.5 mM ADP, 0.5 mM NN414 and 10 uM PI(4,5)P2diC8; closed and pre-open states resolved in the same sample. Particulars: both partners purified.

Data set [2] concerns the molecule itself. Described as above.

T1 sequence (A0A1U7R319 entry or part of it H175K H175K): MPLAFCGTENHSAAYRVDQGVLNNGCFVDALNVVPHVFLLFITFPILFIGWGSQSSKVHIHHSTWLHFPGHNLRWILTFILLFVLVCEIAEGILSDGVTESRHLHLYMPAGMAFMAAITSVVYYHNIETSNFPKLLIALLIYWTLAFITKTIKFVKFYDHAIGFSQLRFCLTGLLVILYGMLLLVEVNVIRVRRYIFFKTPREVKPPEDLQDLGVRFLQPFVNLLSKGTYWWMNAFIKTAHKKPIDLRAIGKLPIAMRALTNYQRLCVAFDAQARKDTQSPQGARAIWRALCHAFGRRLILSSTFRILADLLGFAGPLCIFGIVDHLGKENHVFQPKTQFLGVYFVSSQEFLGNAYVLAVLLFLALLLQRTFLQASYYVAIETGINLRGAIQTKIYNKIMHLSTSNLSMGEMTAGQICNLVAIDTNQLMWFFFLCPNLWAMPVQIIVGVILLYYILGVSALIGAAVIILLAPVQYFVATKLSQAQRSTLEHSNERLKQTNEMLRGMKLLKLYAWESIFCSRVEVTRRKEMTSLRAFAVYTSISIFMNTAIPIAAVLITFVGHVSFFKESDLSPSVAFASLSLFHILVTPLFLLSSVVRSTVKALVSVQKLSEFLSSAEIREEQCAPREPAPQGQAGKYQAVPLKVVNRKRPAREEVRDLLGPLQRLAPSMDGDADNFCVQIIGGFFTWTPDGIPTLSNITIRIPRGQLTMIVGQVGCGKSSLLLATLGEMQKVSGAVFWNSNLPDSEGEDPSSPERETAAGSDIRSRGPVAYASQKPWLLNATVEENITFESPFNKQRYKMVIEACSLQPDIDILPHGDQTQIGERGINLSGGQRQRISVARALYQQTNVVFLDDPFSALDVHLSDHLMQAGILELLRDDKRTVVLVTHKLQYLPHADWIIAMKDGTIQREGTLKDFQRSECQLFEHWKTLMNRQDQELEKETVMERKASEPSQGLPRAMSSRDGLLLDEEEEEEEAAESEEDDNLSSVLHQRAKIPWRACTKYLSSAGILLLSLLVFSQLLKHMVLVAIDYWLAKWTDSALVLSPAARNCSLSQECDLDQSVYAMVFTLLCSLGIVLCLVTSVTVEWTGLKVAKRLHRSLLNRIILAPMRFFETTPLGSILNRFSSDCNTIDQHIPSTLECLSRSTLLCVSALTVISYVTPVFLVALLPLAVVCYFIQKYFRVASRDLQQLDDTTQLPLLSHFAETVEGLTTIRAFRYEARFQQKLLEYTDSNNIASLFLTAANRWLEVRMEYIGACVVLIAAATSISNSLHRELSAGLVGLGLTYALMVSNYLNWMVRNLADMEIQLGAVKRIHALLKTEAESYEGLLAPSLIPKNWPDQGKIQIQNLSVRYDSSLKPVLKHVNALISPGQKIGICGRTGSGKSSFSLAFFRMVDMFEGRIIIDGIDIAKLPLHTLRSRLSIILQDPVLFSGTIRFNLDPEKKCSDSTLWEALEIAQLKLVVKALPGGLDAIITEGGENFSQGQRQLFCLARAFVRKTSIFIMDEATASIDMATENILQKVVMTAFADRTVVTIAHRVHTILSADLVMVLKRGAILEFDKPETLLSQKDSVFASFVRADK

B1: Kir6.2 from Mus musculus (mmKir6.2) H175K mutant, as the Kir6.2 part of H175K_(cryo-EM) (natural protein, UniProt Q61743 2-390, looked up)
chain: LSRKGIIPEEYVLTRLAEDPAEPRYRTRERRARFVSKKGNCNVAHKNIREQGRFLQDVFTTLVDLKWPHTLLIFTMSFLCSWLLFAMVWWLIAFAHGDLAPGEGTNVPCVTSIHSFSSAFLFSIEVQVTIGFGGRMVTEECPLAILILIVQNIVGLMINAIMLGCIFMKTAQAKRRAETLIFSKHAVITLRHGRLCFMLRVGDLRKSMIISATIHMQVVRKTTSPEGEVVPLHQVDIPMENGVGGNGIFLVAPLIIYHVIDSNSPLYDLAPSDLHHHQDLEIIVILEGVVETTGITTQARTSYLADEILWGQRFVPIVAEEDGRYSVDYSKFGNTIKVPTPLCTARQLDEDRSLLDALTLASSRGPLRKRSVAVAKAKPKFSISPDSLS
notes: Kir6.2 from Mus musculus (mmKir6.2), first Met removed, H175K mutant; In the assay it stood on one chain with SUR1: its N terminus is joined to the Prescission site and the 41-residue linker after SUR1; source: purified in digitonin (Streptactin 4FF resin, Superose 6 increase)
Consider B1, for which the binding result in data set [1] and in data set [2] was “binds” in each case.
